Laboratory results published in patent US20120171195A1.

How the values were obtained:
HLA-B*4801 (B48) (human) = HLA-B*4801 (B48) (human) (UniProt P01889); experiment: Luminex single-antigen beads; MEM-E/02 1/600; serum Mi114 1/100
[1] = target: HLA-Cw*1502 (Cw15) (human); experiment: as above
HLA-A*2403 (A24) (human) = experiment: as above
HLA-B*5901 (B59) (human) = experiment: as above
HLA-B*4501 (B45) (human) = experiment: as above
[2] = target: HLA-Cw*1802 (Cw18) (human) (UniProt P10321); experiment: as above
HLA-B*5401 (B54) (human) [3] = target: HLA-B*5401 (B54) (human) (UniProt P01889); experiment: as above
[4] = target: HLA-Cw*0801 (Cw8) (human) (UniProt P10321); experiment: as above
HLA-B*2708 (B27) (human) [5] = target: HLA-B*2708 (B27) (human) (UniProt P01889); experiment: as above
HLA-B*1401 (B64) (human) = HLA-B*1401 (B64) (human) (UniProt P01889); experiment: as above
HLA-B*0801 (B8) (human) = HLA-B*0801 (B8) (human) (UniProt P01889); experiment: as above
HLA-B*1801 (B18) (human) = experiment: as above
HLA-B*3801 (B38) (human) = experiment: as above
HLA-A*3301 (A33) (human) = experiment: as above
HLA-B*5201 (B52) (human) = experiment: as above
HLA-B*5801 (B58) (human) = experiment: as above
HLA-B*1513 (B77) (human) = experiment: as above
HLA-A*3002 (A30) (human) [6] = target: HLA-A*3002 (A30) (human) (UniProt P04439); experiment: as above
HLA-B*1301 (B13) (human) = experiment: as above
HLA-A*2901 (A29) (human) [7] = target: HLA-A*2901 (A29) (human) (UniProt P04439); experiment: as above
HLA-A*2601 (A26) (human) = experiment: as above
HLA-B*1511 (B75) (human) = HLA-B*1511 (B75) (human) (UniProt P01889); experiment: as above
HLA-A*3201 (A32) (human) = experiment: as above
HLA-B*6701 (B67) (human) = HLA-B*6701 (B67) (human) (UniProt P01889); experiment: as above
[8] = target: HLA-Cw*1203 (Cw12) (human) (UniProt P10321); experiment: as above
HLA-Cw*0304 (human) = experiment: Luminex single-antigen beads; MEM-E/02 1/600; serum Mi59 1/100
[9] = target: HLA-Cw*1802 (Cw18) (human) (UniProt P10321); experiment: as above
HLA-B*5401 (B54) (human) [10] = target: HLA-B*5401 (B54) (human) (UniProt P01889); experiment: as above
[11] = target: HLA-Cw*1701 (Cw17) (human); experiment: as above
[12] = target: HLA-Cw*0801 (Cw8) (human) (UniProt P10321); experiment: as above
HLA-B*2708 (B27) (human) [13] = target: HLA-B*2708 (B27) (human) (UniProt P01889); experiment: as above
HLA-A*3002 (A30) (human) [14] = target: HLA-A*3002 (A30) (human) (UniProt P04439); experiment: as above
HLA-A*2901 (A29) (human) [15] = target: HLA-A*2901 (A29) (human) (UniProt P04439); experiment: as above
[16] = target: HLA-Cw*1203 (Cw12) (human) (UniProt P10321); experiment: as above
HLA-B*5001 (B50) (human) = experiment: as above

## murine monoclonal antibody MAb MEM-E/02
HLA-B*4801 (B48) (human)
  MFI: 969 MFI
[1]
  MFI: < 500 MFI
HLA-A*2403 (A24) (human)
  MFI: < 500 MFI
HLA-B*5901 (B59) (human)
  MFI: 930 MFI
HLA-B*4501 (B45) (human)
  MFI: < 500 MFI
[2]
  MFI: < 500 MFI
HLA-B*5401 (B54) (human) [3]
  % inhibition: 95%
  MFI: 990 MFI
[4]
  MFI: < 500 MFI
HLA-B*2708 (B27) (human) [5]
  % inhibition: 29%
  MFI: 2260 MFI
HLA-B*1401 (B64) (human)
  MFI: < 500 MFI
HLA-B*0801 (B8) (human)
  MFI: < 500 MFI
HLA-B*1801 (B18) (human)
  MFI: < 500 MFI
HLA-B*3801 (B38) (human)
  % inhibition: 76%
  MFI: 929 MFI
HLA-A*3301 (A33) (human)
  MFI: < 500 MFI
HLA-B*5201 (B52) (human)
  % inhibition: 88%
HLA-B*5801 (B58) (human)
  % inhibition: 37%
  MFI: 2110 MFI
HLA-B*1513 (B77) (human)
  MFI: 1550 MFI
HLA-A*3002 (A30) (human) [6]
  MFI: 803 MFI
HLA-B*1301 (B13) (human)
  MFI: < 500 MFI
HLA-A*2901 (A29) (human) [7]
  MFI: < 500 MFI
HLA-A*2601 (A26) (human)
  MFI: < 500 MFI
HLA-B*1511 (B75) (human)
  MFI: < 500 MFI
HLA-A*3201 (A32) (human)
  MFI: 742 MFI
HLA-B*6701 (B67) (human)
  MFI: < 500 MFI
[8]
  MFI: < 500 MFI
HLA-Cw*0304 (human)
  MFI: 557 MFI
[9]
  MFI: 1080 MFI
HLA-B*5401 (B54) (human) [10]
  MFI: < 500 MFI
[11]
  MFI: < 500 MFI
[12]
  MFI: < 500 MFI
HLA-B*2708 (B27) (human) [13]
  MFI: < 500 MFI
HLA-A*3002 (A30) (human) [14]
  MFI: < 500 MFI
HLA-A*2901 (A29) (human) [15]
  MFI: < 500 MFI
[16]
  MFI: < 500 MFI
HLA-B*5001 (B50) (human)
  MFI: < 500 MFI
